Assay results taken from patent US20180334496A1 (KODIAK SCIENCES, published 2018).
Residue numbers refer to the chain shown, from its start. Where two headings read alike, the source gives them in different places.

B1: KCD010 (antibody, V domains shown)
VH: EVLLQQSGPELVKPGASVKIPCKASGYTFTDYDMDWVKQSHGKSLEWIGHINPNNGGTIYNQKFKGKATLTVDKSSSTAYMELRSLTSEDTAVYYCGTGDFAYWGHGTLVTVSA
VL: QIVLTQSPAIMSVSPGEKVTLTCSASSSVSSSYLYWYQKKPGSSPKLWIYSTSNLASGVPARFSGSGSGTSYSLTISSMEAEDAASYFCHQWSSYPPTFGAGTKLELK
notes: chimeric
B2: KCD220 (antibody, V domains shown)
VH: QVQLQQSGAELMEPGASVKLSCKATGYTFTGYWIEWVKQRPGHGLEWIGETLPGSDSNNYNEKFKGKATFTADTSSNTAYMQLSSLTTEDSAIYYCARDYSNYWYFDVWGTGTTVTVSS
VL: DIQMTQTTSSLSASLGDRVTISCRASQDISNYLNWYQQKPDGTVKLLIYYTSNLHSGVPSRFSGSGSGTDYSLTISNLEQEDIATYFCQQDSKHRTFGGGTKLEIK
notes: chimeric
B3: KCD131 (antibody, V domains shown)
VH: QVQLQQSGPELVKPGASVKISCKASAYTFTDYYINWVKQRPGQGPEWIGWIFPGSNSTYSNEKFEVKATLTVDESSSTAYMLLSSLTSEDSAVYFCARLGYFGSSYHALDYWGQGTSVTVSS
VL: DIQMTQSPASLSVSVGETVTITCRASENIYSHLAWFQQKQGKSPRLLVYSATNLPDGVPSRFSGSGSGTQYSLKINILQSEDFGSYYCQHFWGTPWTFGGGTKLEIK
notes: chimeric
B4: KCD122 (antibody, V domains shown)
VH: EVQLQQSGPELVKPGASVKISCKASGYTFTDYYKNWMRQRHGESLEWIGDINPNNGDANYNQKFKGKATLTVDKSSSTAYMELRSLTSEDSAVYFCAREGPSFAYWGHGTLVTVSA
VL: DVLMTQTPLSLPVSLGDQASISCRSSQTIVHSNGDTYLEWYLQKPGQSPNLLIYKVSNRFSGVPDRFSGSGSGTDFTLKISRVEAEDLGVYYCFQGSHVPPTFGGGTKLEIK
notes: chimeric
B5: KCD003 (antibody, V domains shown)
VH: EVQLQQSRPELVKPGASVKIFCKASGYTFTDYYMNWMRQRHGETLEWIGDINPNNGDPSYNQKFKDKATLTVDKSSSTASMELRSLTSDDSAVYYCAREGPSFAYWGQGTLVTVSA
VL: B4 VL with D17E
notes: chimeric
B6: KCD118 (antibody, V domains shown)
VH: B4 VH with S25F, N55S, F95Y
VL: B4 VL with V90I
notes: chimeric
B7: KCD002 (antibody, V domains shown)
VH: EVKLVESEGGLVQPGSSMKLSCTASGFTFSDYYMAWVRQVPEKGLEWVGNINYDGSSTYYLDSLKSRFIISRDSAKNILYLQMSSLKSEDTATYFCARGEDFYLYAMDYWGQGTSVTVSS
VL: DIQMTQSPASLSASVGETVTITCRASENIHSYLAWYQQKQGKSPQLIVYNTKTLAEGVPSRFSGSGSGTQFSLKINSLQPEDFGSYYCQHHYGIPPTFGGGTKLEIK
notes: chimeric
B8: KCD224 (antibody, V domains shown)
VH: QVQLKESGPGLVAPSQSLSITCTVSGFSLTSYGVDWIRQSPGKGLEWLGVIWGVGSTNYNSALKSRLSISKDNSKSQVFLKMNSLQTDDTAMYYCARSYDGSYWYFDVWGTGTTVTVSS
VL: DIQMTQTTSSLSASLGDRVTISCRASQVISNYLNWYQQKPDGTVKLLIYYTSRLHSGVPSRFSGSGSGTDYSLTISNLEPEDIATYYCQQYSKLPYTFGSGTKLEIK
notes: chimeric
B9: KCD102 (antibody, V domains shown)
VH: QVQLQQPGAELVRPGTSVKLSCKASGYTFTSYWMHWVKQRPGQGLEWIGVIDPSDSYTNYNQKFKGKATLTVDTSSSTAYMQLSSLTSEDSAVYYCARNGYDGSMDYWGQGTSVTVSS
VL: B8 VL with D1E, V28D, T51P, P80Q, I83F, Y87F, Y91G, S92N, K93T, S100G
notes: chimeric
B10: KCD104 (antibody, V domains shown)
VH: B9 VH with N59Y, S104A
VL: B8 VL with D1E, V28D, T51P, P80Q, I83F, Y87F, Y91G, S92N, K93T, S100G
notes: chimeric
B11: KCD103 (antibody, V domains shown)
VH: B9 VH with N59K, G66D, D73E, R98G
VL: B8 VL with V28D, Y32S, G57R, E79D, P80Q, Y87F, Y91A, S92N, K93T, S100G
notes: chimeric
B12: KCD101 (antibody, V domains shown)
VH: B9 VH with A97G
VL: B8 VL with V28D, T51P, P80Q, I83F, Y87F, Y91G, S92N, K93T, S100G
notes: chimeric
B13: KCD047 (antibody, V domains shown)
VH: EVQLQQSGAEFVKPGASVRLSCTASGFNIKDTYMHWVKQRPEQGLEWIGRIDPANGYTKDDPKFQGKATITADTSSNTAYLQLSSLTSEDTAVYYCASAMDYWGQGTSVTVSS
VL: QIVLTQSPAVMSASPGEKVAMTCSASSSVTYMYWYQQKPGSSPRLLIYDTSNLASGVPVRFSGSGSGTSYSLTISRMEAEDAATYYCQQWSTYPFPFGSGTKLEIK
notes: chimeric
B14: KCD136 (antibody, V domains shown)
VH: EVQLQQSVAELVRPGASVKLSCSASGFNIKNTYMHWVNQRPEQGLEWIGRIDPANGITKYAPNFQGKATITADTSSNTAYLQLSNLTSEDTAIYYCTRAMDYWGQGTSVTVSS
VL: B13 VL with V10I, A20T, T30S, T50I, S91D, F95W, P96T, S99G
notes: chimeric
B15: KCD208 (antibody, V domains shown)
VH: EVQLQQSVAELVRPGASVKLSCTVSGFNIKNTYMHWVKQRPEQGLEWIGRIDPANGDTTYAPKFQGKATITADTSSNSAYLHLSRLTSEDTAIYYCSLYDYDGYWGQGTTLTVSS
VL: EIVLTQSPALMAASPGEKVTITCSVSSSISSSSLHWYRQKSGTSPKPWIYGTSHLASGVPVRFSGSGSGTSYSLTISSMEAEDAATYYCQQWDTYPWTFGGGTKLEIK
notes: chimeric
B16: KCD214 (antibody, V domains shown)
VH: B15 VH with L11F, V24A, D57N, T59E, S78T, H82Q, R85S, S97A
VL: B15 VL with S24R, R38Q, H54N, G67R, D93S, T94D
notes: chimeric

Key:
[1] = target: T1, recombinant human CFD mutant 1 (R157A, R207A), His-tagged (human, UniProt P00746 26-253); test: ELISA
T1 construct: positions are linear positions in the mature protein; also called rhCFD-mut1-His; Mut1
T1 sequence (P00746 26-253 R182A/R232A limits assumed): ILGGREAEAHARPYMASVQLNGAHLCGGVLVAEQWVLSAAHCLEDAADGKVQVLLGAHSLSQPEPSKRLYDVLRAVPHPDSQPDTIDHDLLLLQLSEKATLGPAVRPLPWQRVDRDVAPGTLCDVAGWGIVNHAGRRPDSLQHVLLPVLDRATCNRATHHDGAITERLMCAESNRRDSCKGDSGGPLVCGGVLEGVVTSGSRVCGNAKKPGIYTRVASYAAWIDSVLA

[2] = target: T1, recombinant human CFD mutant 1 (R157A, …); test: ELISA, Mut1 Binding, Bin 2
[3] = target: T2, human complement factor D purified from serum (human, UniProt P00746 26-253); test: cell-based or functional assay
T2 sequence (P00746 26-253): as the sequence (P00746 26-253 R182A/R232A limits assumed) above, with A157R, A207R counted along it

[4] = target: T2, human complement factor D purified from …
[5] = target: T2, human complement factor D purified from …; test: SPR MX96
[6] = target: T3, recombinant human CFD, His-tagged (human, UniProt P00746 26-253); test: SPR MX96
T3 construct: also called rhCFD-His
T3 sequence (P00746 26-253 limits assumed): as the sequence (P00746 26-253 R182A/R232A limits assumed) above, with A157R, A207R counted along it

[7] = target: T4, recombinant cynomolgus CFD, His-tagged (cynomolgus); test: SPR MX96
T4 construct: also called rcyCFD-His; recombinant Cyno-CFD

[8] = target: T1, recombinant human CFD mutant 1 (R157A, …); test: ELISA; remark: listed apart in the source
[9] = target: T2, human complement factor D purified from …; remark: listed apart in the source
[10] = target: T2, human complement factor D purified from …; test: cell-based or functional assay; remark: listed apart in the source
[11] = target: T1, recombinant human CFD mutant 1 (R157A, …); test: SPR MX96
[12] = target: T1, recombinant human CFD mutant 1 (R157A, …); test: ELISA; remark: listed apart in the source
[13] = target: T2, human complement factor D purified from …; test: cell-based or functional assay; remark: listed apart in the source
[14] = target: T2, human complement factor D purified from …; remark: listed apart in the source
For CFD Enzymatic activity (% of Neg Ctrl) in this document: test concentration or dose not given here.

Binder | Mut1 Binding (% wt) [1] [% wt] | binding result [2] | CFD Enzymatic activity (% of Neg Ctrl) [3] | Kd [4] [nM] | Kd [5] [nM] | Kd [6] [nM] | Kd [7] [nM] | Mut1 Binding (% wt) [8] [% wt] | Kd [9] [nM] | CFD Enzymatic activity (% of Neg Ctrl) [10] | Kd [11] [nM] | Mut1 Binding (% wt) [12] [% wt] | CFD Enzymatic activity (% of Neg Ctrl) [13] | Kd [14] [nM]
B1 | 3.77 | no binding | 49.4 % of Neg Ctrl | 1.46 | 3.1 | 2.5 | 2.9 |  |  |  |  |  |  | 
B2 |  |  |  |  | 0.054 | 0.074 | 0.28 | 74.1 | 0.0639 | 88.1 % of Neg Ctrl | 0.029 |  |  | 
B3 |  |  |  |  | 0.14 | 0.047 | 0.99 | 80.7 | 0.0342 | 65.9 % of Neg Ctrl | 0.045 |  |  | 
B4 | 2.25 | no binding | 17.3 % of Neg Ctrl | 0.162 | 1.4 | 0.95 | 1.9 |  |  |  |  |  |  | 
B5 | 1.53 | no binding | 19.6 % of Neg Ctrl | 0.318 | 1.1 | 0.81 | 1.8 |  |  |  |  |  |  | 
B6 | 0.762 | no binding | 14 % of Neg Ctrl | 0.0883 | 0.76 | 0.54 | 1.3 |  |  |  |  |  |  | 
B7 |  |  |  |  | 0.13 | 0.11 | 0.41 | 71.2 | 0.0307 | 144 % of Neg Ctrl | 0.08 |  |  | 
B8 |  |  |  |  | 1.2 | 0.54 | 100 |  |  |  | 1.1 | 121 | 36.3 % of Neg Ctrl | 0.0156
B9 |  |  |  |  | 3.6 | 2.5 | 230 | 64.3 | 6.98 | 92.3 % of Neg Ctrl | 2.5 |  |  | 
B10 |  |  |  |  | 1.6 | 1.2 | 72 | 68.3 | 1.32 | 92.3 % of Neg Ctrl | 0.82 |  |  | 
B11 |  |  |  |  | 4.4 | 3.1 | 63 | 65.2 | 1.48 | 126 % of Neg Ctrl | 2.5 |  |  | 
B12 |  |  |  |  | 3.8 | 2.7 | 240 | 65.8 | 1.45 | 93.2 % of Neg Ctrl | 2.8 |  |  | 
B13 |  |  |  |  | 4.4 | 3.4 | 160 |  |  |  | 2.9 | 58.9 | 47.3 % of Neg Ctrl | 6.62
B14 |  |  |  |  | 4.5 | 3.4 | 27 |  |  |  | 1.4 | 78.3 | 11.8 % of Neg Ctrl | 0.587
B15 |  |  |  |  | 2.5 | 1.9 | 52 |  |  |  | 1.8 | 56.7 | 0 % of Neg Ctrl | 0.451
B16 |  |  |  |  | 1.6 | 1.1 | 26 |  |  |  | 1.3 | 44.3 | 12.8 % of Neg Ctrl | 0.245
